Patent publication US20090123474A1, “COMBINATION OF ANGIOPOIETIN-2 ANTAGONIST AND OF VEGF-A, KDR AND/OR FLTL ANTAGONIST FOR TREATING CANCER” (ASTRAZENECA AB, priority 2005, published 2009)

What was measured:
[1] = tested on: human Colo205 colon tumour xenografts; experiment: Colo205 xenograft efficacy study (Study B); type: in vivo; conditions: 3.19.3 10 mg/kg 2×wk i.p., VTKI 6 mg/kg/day p.o.
Protocol: The anti-tumor activity of monoclonal antibody 3.19.3 in combination with the VTKI 4-(4-fluoro-2-methylindol-5-yloxy)-6-methoxy-7-(3-piperidinopropoxy)quinazoline was evaluated in a xenograft model of human skin epidermoid carcinoma (Study A) and in a model of colorectal cancer (Study B) by using the A431 and Colo205 cell lines respectively.
A431 and Colo205 cells were cultured in flasks as routine until the cells reached sub-confluence. Immunodeficient 6-8 week old female mice (Ncr/nu/nu) were used. The cells were harvested and suspended in Matrigel. A cell suspension containing 1 to 5×10^6 cells was injected subcutaneously into the flank of the mice. The mice were randomized into different groups, each containing 10-15 mice. When the tumour volume reached 200 mm^3, the mice were randomized in each groups and the treatments were initiated. mAb 3.19.3 10 mg/kg in saline was injected intraperitoneally, twice per week for 2 weeks. 4-(4-fluoro-2-methylindol-5-yloxy)-6-methoxy-7-(3-piperidinopropoxy)quinazoline was treated peroral daily at doses ranging from 1.5 to 6 mg/kg in water containing 1% Tween80. The dimensions of each tumor were measured twice per week. The volume of the tumor was calculated as: Volume=Length×(Width)^2×0.5 (cm^3).

[2] = tested on: human SW620 colon tumour xenografts; experiment: SW620 xenograft efficacy study; type: in vivo; conditions: 3.19.3 10 mg/kg 2×wk i.p., DC101 15 mg/kg 2×wk i.p., 3 weeks
Protocol: The anti-tumor activity of mAb 3.19.3 was evaluated in combination with monoclonal antibody DC101 which is directed against VEGFR-2/KDR, in the SW620 colorectal cancer xenograft model. Briefly, SW620 cells were cultured under routine tissue culture conditions in flasks until the cells reached sub-confluence. Immunodeficient 8-10 week old NCr nude mice were used, and cell suspensions containing approximately 1×10^6 cells were injected subcutaneously into the right flank of the mice. After the tumour volumes reached 100 mm^3, the mice were randomized in groups and the treatments were initiated. The mAb 3.19.3 10 mg/kg in saline was injected intraperitoneally, twice per week for 3 weeks. The mAb DC101 15 mg/kg in saline was also injected intraperitoneally, following the same schedule of twice per week for 3 weeks. The dimensions of each tumor were measured twice per week. The volume of the tumor was calculated as: Volume=Length×(Width)^2×0.5 (cm^3).

[3] = molecular target: T1, Angiopoietin-2 binding to Tie-2 (Homo sapiens, UniProt O15123); experiment: Competitive binding assay (modified ELISA): inhibition of Angiopoietin-2 binding to Tie-2
T1 construct: purchased R&D Systems, Inc. BT623 (Angiopoietin-2, biotinylated); 313-TI-100 (Tie-2/Fc)
T1 sequence (O15123 19-496): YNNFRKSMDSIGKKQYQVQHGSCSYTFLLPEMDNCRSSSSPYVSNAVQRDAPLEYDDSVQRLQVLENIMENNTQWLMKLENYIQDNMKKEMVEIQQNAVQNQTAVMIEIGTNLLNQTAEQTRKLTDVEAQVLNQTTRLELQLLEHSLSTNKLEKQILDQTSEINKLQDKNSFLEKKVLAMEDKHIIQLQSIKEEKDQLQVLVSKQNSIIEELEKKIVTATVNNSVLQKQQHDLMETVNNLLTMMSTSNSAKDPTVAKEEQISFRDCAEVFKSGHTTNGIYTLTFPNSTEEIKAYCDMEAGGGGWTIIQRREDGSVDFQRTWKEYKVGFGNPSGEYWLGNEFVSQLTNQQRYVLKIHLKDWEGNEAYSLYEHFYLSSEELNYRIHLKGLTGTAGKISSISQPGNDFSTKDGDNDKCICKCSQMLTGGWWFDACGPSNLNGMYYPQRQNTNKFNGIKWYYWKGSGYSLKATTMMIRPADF
Protocol: As discussed above, Angiopoietin-2 exerts its biological effect by binding to the Tie-2 receptor. Monoclonal antibodies that inhibited Angiopoietin-2/Tie-2 binding were identified by a competitive binding assay using a modified ELISA. The mAb used were products of micro-purification from 50 ml of exhaustive supernatants of the hybridoma pools that were specific for Angiopoietin-2 (see above). 96-well Nunc Immplates™ were coated with 100 μl of recombinant human Tie-2/Fc fusion protein (R&D Systems, Inc., Cat. No. 313-TI-100) at 4 μg/ml by incubating overnight at 4° C. The plates were washed four times using Phosphate Buffer Saline (PBS) with a Skan™ Washer 300 station (SKATRON). The wells were blocked by 100 μl of ABX-blocking buffer (0.5% BSA, 0.1% Tween, 0.01% Thimerosal in PBS) for 1 hour.
Biotinylated recombinant human Angiopoietin-2 (R&D Systems, Inc. Cat. No. […] The plates were incubated at room temperature for two hours before the unbound molecules were washed off. Bound biotinylated Angiopoietin-2 was then detected using 100 μl/well of Streptavidin-HRP conjugate at 1:200 by incubating at room temperature for half an hour. After washing twice, the bound Streptavidin was detected by HRP substrate (R&D Systems, Cat. No. DY998). The plates were incubated for 30 minutes before 450 stop solution (100 μl/well, BioFX, Cat# BSTP-0100-01) was added to terminate the reaction. The light absorbance at 450 nm was determined by a Spectramax Plus reader.
Soluble recombinant Tie-2/Fc fusion protein at 10-fold molar excess to Angiopoietin-2 was used as a positive control. At this concentration, Tie-2/Fc inhibited binding of Angiopoietin-2 to immobilized Tie-2 by 80%.
To quantitate the inhibitory activities of the mAb on Angiopoietin-2 binding to Tie-2, the titer was determined for purified mAbs from the top candidates using a competitive binding assay. Each concentration of the mAb was tested in duplicate. The concentration-response relationship was found by curve fitting using Graphpad Prism™ graphic software (non-linear, Sigmoid curve). The maximal inhibition (efficacy) and IC50 (potency) were calculated by the software.

B1: mAb 3.19.3: fully human anti-Angiopoietin-2 monoclonal antibody, variable regions SEQ ID NO: 5-8; also binds Angiopoietin-1 (antibody, V domains shown)
VH: QVQLVESGGGVVQPGRSLRLSCAASGFTFTNYGMHWGRQAPGKGLEWVAVISHDGNNKYYVDSVKGRFTISRDNSKNTLYLQMNSLRAEDTAVYYCAREGIDFWSGLNWFDPWGQGTLVTVSSA
VL: EIVLTQSPGTLSLSPGERATLSCRASQSITGSYLAWYQQKPGQAPRLLICGASSWATGIPDRFSGSGSGTDFTLTISRLEPEDFAVYYCQQYSSSPITFGQGTRLEIKR
With B1 the “% inhibition” value [1] was 35%, the tumour inhibition [2] was 48% and the “EC50” value ([3]; potency, competitive binding of Angiopoietin-2 to Tie-2, purified mAb) was 0.7976 µg/mL. The “Efficacy*” value ([3]; ratio of bound Angiopoietin-2 with mAb (30 μg/ml) versus without mAb) was 0.3945.
